± gives the uncertainty stated by the source.

The nature of the data set: amyloid nucleation score (Sup35N fusion, yeast selection) (log enrichment); library NNK1; higher = more nucleation; inactive = no reads after selection. The gist of the method:
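After 24 hours of induction with 100 μM copper sulfate, psi-negative yeast expressing peptides of 20 random codons fused to Sup35N were grown for 7 days at 30°C on medium lacking adenine and uracil. Input and output plasmid inserts were sequenced with Illumina, and sequences with under 100 input reads were discarded. Scores for nucleation are the DiMSum log enrichment of output over input reads, centred on the mode score of non-aggregating sequences.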
In turn, VFTLPLDWQKRCGYDSLRFP registered an amyloid nucleation score of 0.018 ± 0.44. RSPHVAGYNMKAGSDRSNIT registered an amyloid nucleation score of 0.052 ± 0.26.

The substance VAFMDLTMRLDWGNFSNR yielded an amyloid nucleation score of 4.34 ± 0.056.

Take RGGTMGYILDNKCQNFVGTW: the amyloid nucleation score entry was “inactive”.

In turn, KYVCGLTDTVIRGMLKVIRA had an amyloid nucleation score of 0.559 ± 0.27. The substance EGRLTVE had an amyloid nucleation score of -0.011 ± 0.32. Then RILSDDDVARQNGNDDNLYP, with 3.22 ± 0.092; and DSQMYTMH, with -0.054 ± 0.71; and SRLATQTRLKMAGSISLFRS, with -0.208 ± 1.2. For YKSVLHSSRSGGAYGVVKSL the value was -0.038 ± 0.45. For TRGCLRPATSKSGMRPW the value was 0.056 ± 0.69.

Take FKSTPVFKQWRNGGTDGLTG: the amyloid nucleation score is -0.958 ± 1.5. Then CQELYLKFVVENFSTFLRNH, with -2.68 ± 2.7; and IRELRSDFSGSMVDERFLGE, with 0.489 ± 1.1. For FRSAKAIMLEVN the value was 0.048 ± 0.41; for HIVVFKYVCYSHEAVYWRPE, 0.305 ± 1.2; for KFILRYMAWTRVDAVVSKPY, -0.496 ± 0.38. LNASGIVVCFYSSDNTCTYE yielded an amyloid nucleation score of 4.49 ± 0.089. On to RWYSHFSAMQWGATLCFWGL, for which the amyloid nucleation score was found to be 2.64 ± 0.11. Then QPNNGVPQIMDTV, with 0.184 ± 0.43; and NFRNSGESSTNYSK, with “inactive”; and ACPVGTRFTVATTFRRMLCE, with 0.312 ± 0.47. With RSMWICLWACYNLMVIRWPG, the amyloid nucleation score is -0.446 ± 0.54.

VFPALLNISRLISKTQCSQV: the amyloid nucleation score is -0.978 ± 0.99. For LNNHETFFGFVDVSGSAIS the value was 0.272 ± 0.26; for VESFYVSIFGGGLRLKCSKS, 0.514 ± 0.46. The substance LTYLMWRRYSNIFQTSCSCL returned an amyloid nucleation score of 0.499 ± 0.59.

The substance RPCNEGFWLHNHGRSNSSSS gave an amyloid nucleation score of -0.462 ± 0.52.

In turn, FESRDVRSLWWDWSYSNKTV came in with an amyloid nucleation score of 0.191 ± 0.28.

Substance AFVTSRPYWGNSVVEAHLVG came in with an amyloid nucleation score of 1.69 ± 0.19. Take AVLLCRSESCCKYSAIANSG: the amyloid nucleation score is -1.22 ± 0.69. For IWMTGVLLNP the value was -0.223 ± 0.29; for DFHDLSNLVTGGLLITHIL, 1.01 ± 0.58; for DGCIKLWGF, 0.779 ± 0.67. Consider PFSYLMDLTIYVGKSLQSNE, for which the amyloid nucleation score is 0.119 ± 0.35.

Turning to FAYFSVNCL, the amyloid nucleation score result is “inactive”. In the case of YVLRPFGLLKWSNSVGPHER, the amyloid nucleation score is -0.106 ± 1.2. For NLINVFTLKWFDITL the value was 5.686 ± 0.053; for FDFCVEIWLRVFLNMWGRLR, 0.689 ± 0.33; for EYGDDVLWMFSTILCVRGEW, -0.626 ± 0.47. Then GVGDTNCSEL, with 0.178 ± 0.33; and TDLMLYYCYSAVPCWDFPAS, with 0.073 ± 1. For NFTSRYEANFTVFSFRAWRL the value was 0.297 ± 0.36; for LNTCLFISDTAVFIMASYMV, 3.06 ± 0.45.

For QCDRILSDLYNCSGYNRNTK, the amyloid nucleation score was -0.522 ± 0.74. In turn, ISVHHFR showed an amyloid nucleation score of 0.282 ± 0.57. Then SVLSSLVSEISGVVCLVLGH, with -0.214 ± 0.57. As to GNLRNMLMTYSSSVGNKLIF, the amyloid nucleation score was -0.344 ± 0.57. Take MTHAFLRWSYLFRNIWMHVF: the amyloid nucleation score came to 0.349 ± 1.2. For ELLYGWGIP the value was -0.723 ± 0.76; for NMCNLSFLQ, 0.104 ± 1.1; for WFGLQYMSWVSIESYGQAAW, 0.875 ± 0.97. Take VVLGLWV: the amyloid nucleation score result is “inactive”. Then EHLRFKKANNVLYVNESSSV, with -1.59 ± 1.3; and SLLCYRRGSWGEYIMFNGRL, with -0.366 ± 0.84; and MCNVGTVRAYSLIQGGIRQC, with 0.373 ± 0.34.

RVVSCMTSRMLWSMRDPIYY had an amyloid nucleation score of 0.217 ± 0.41. In turn, GRVKINKNLSVYKYINFRDS yielded an amyloid nucleation score of 2.04 ± 0.21. For RGLSNA the value was 0.664 ± 0.48. For ISFCDGRSCIDLIAVRCFRG the value was -0.909 ± 0.26; for TWSACICKRMVLPCDFQNGS, 0.808 ± 0.9. For LAEYHYGSMFSLNSTYYNLS the value was 5.91 ± 0.069. With HVCEGEVVR, the amyloid nucleation score was -0.135 ± 0.37. In turn, LNHLVSPKALQN returned an amyloid nucleation score of 0.017 ± 0.4.

Regarding VYKCSQVDRVCKMAWVGLKS, the amyloid nucleation score stood at 0.205 ± 0.34.

The substance SGGSEELLRVVMVSSMKGPW yielded an amyloid nucleation score of -0.254 ± 0.81. For CKNNGGKDMSVMI the value was 1.14 ± 0.49; for TSVDG, 0.162 ± 0.28.

For the substance IRFFKCLTCVSDCGN, the amyloid nucleation score entry is “inactive”.

For WTYRQLKSAGKEHVYFLKVR, the amyloid nucleation score was -0.031 ± 1.2.

In turn, WFNWVCCNGNAWIKDRF showed an amyloid nucleation score of 7.66 ± 0.054. For YMLGREMS the value was “inactive”. With SNEVEGLFLKLYNFVPVRQW, the amyloid nucleation score was 0.148 ± 0.26. In the case of VDRLNFLSLSYENFSGSSGE, the amyloid nucleation score stood at 4.7 ± 0.064. Then WYGVFALMIGRSIFD, with -0.027 ± 0.27; and FMFYTYHVNSYFSILCSVSN, with 0.655 ± 0.46. NFARDLKRHVRMG had an amyloid nucleation score of 0.461 ± 0.35. Then GFFFVFHYSGTHGLICCYTL, with -0.22 ± 0.41; and IKTNHKDNLWNNFNLYDKAH, with 0.233 ± 0.31; and YSYLV, with -0.716 ± 0.84. For FLTSECSTSSLHS the value was 0.56 ± 0.85; for FVMLFRFRVVCRFV, “inactive”; for WMLHMASGGTLCEEASVLVV, -0.148 ± 0.55.

For the substance FTFEFVNHMASVYRSLMYER, the amyloid nucleation score was -0.356 ± 1.1. Then RGCMAQDSNLYKHVSARTGD, with -0.179 ± 1.6; and TFTVAEQVALE, with 0.415 ± 0.47. KMGWLRH yielded an amyloid nucleation score of -0.566 ± 0.5. Substance MMWLCAVFPGIRFYGYPGLN gave an amyloid nucleation score of -1.88 ± 2.7.

The substance TEITC gave an amyloid nucleation score of 0.837 ± 0.27. With CHTTKNYVYCVCMQFVTHQ, the amyloid nucleation score turned out to be 6.725 ± 0.045. For ISLGCNDSGLRIG the value was -0.935 ± 0.84; for CVNIRNQKQLSFAGLVDLSV, 0.358 ± 0.59.

The substance SCTYSIFCDNISRTLGH registered an amyloid nucleation score of -0.287 ± 0.26. With LLMVREDRRRFRSFGS, the amyloid nucleation score came out at 0.773 ± 0.76. With RYRSMHHFRVHDKHPMLGYA, the amyloid nucleation score amounted to 1.34 ± 0.84. For GSRFPFLVVDMCSSELVKR the value was 0.577 ± 0.63; for ANQRSAGYPSGYKCTYYNRS, 0.838 ± 0.41; for IYACRGQRVMRTRIKCVVIW, 0.525 ± 0.72. Turning to TKSTYSSTVTKRTSASCVTL, the amyloid nucleation score turned out to be 0.215 ± 1.1. For LGPVLFKLLRETCAQSYKVM the value was -0.005 ± 0.67.

TLISSGNVHYMWKVTFLNNR: the amyloid nucleation score came out at 4.8 ± 0.063.

Consider NLSALLHDHFMGPIDLKFLT, for which the amyloid nucleation score was 1.8 ± 0.52. In turn, IAYKPLTWSSWEGSISIIRV returned an amyloid nucleation score of 0.149 ± 0.4. Then MPTLNYIVKCSREVTGGILD, with “inactive”; and IAGRRPALYRVWNSRCSLLN, with 0.014 ± 0.49; and FIYFYGRYNSSGDPFQVFLG, with -0.578 ± 0.34.

Turning to WSRSLVLGPLEMAHTKAVQN, the amyloid nucleation score is -0.658 ± 1.4. For WSVSASQFRSVPRSPFALSQ the value was -0.303 ± 0.26; for AYVRGCLFILPFRPTQV, 1.42 ± 0.14.

The substance GDNACLLSSIEDALDSVQVL came in with an amyloid nucleation score of 0.99 ± 0.67. Substance CCHRGCGAFVGWMHQFGWYI registered an amyloid nucleation score of -0.186 ± 0.42. TYPYYVTVGGIS displayed an amyloid nucleation score of 0.113 ± 0.43. Substance IINVLC returned an amyloid nucleation score of 3.73 ± 0.056. The substance NNYNYLYTYNMQNQKQFIFM gave an amyloid nucleation score of 7.281 ± 0.066.

Consider FVVRCDYVVLTLDSGDRSYV, for which the amyloid nucleation score is 3.37 ± 0.071. For QSPISDCSGQSSCRMCQRYG the value was 0.408 ± 0.2; for LYFVCIFPYRVRTECSEQSR, 4.32 ± 0.095. For LLLNTLLWSL the value was -1.83 ± 2.7. Then YVMDMIYFYDGLVWSCLCWI, with “inactive”; and LSDRVFSVTTQGPCDSIFLS, with -0.792 ± 0.61.

As for VSGAIRRDYIFDVIGRPTV, the amyloid nucleation score result was “inactive”.

Turning to YSRGGFGHWFQHSL, the amyloid nucleation score is -0.482 ± 1.7. Then TWSCMFLYYFTLWLCTS, with “inactive”; and ANFFICFLHLVCTKIQSSLL, with 1.77 ± 0.52; and HHDMGSFFAVQSTSGTEGMG, with -0.099 ± 0.37. On to LSMRIQAQMIVAWPTKHPIL, for which the amyloid nucleation score came to 4.99 ± 0.12. TFLYVWSTSDSYKK showed an amyloid nucleation score of 0.148 ± 0.61. As for NSGNHDSCKFFGLLVRQMVG, the amyloid nucleation score amounted to 0.529 ± 0.46.

As to KFDLYRTWCSSLRFGRYWRV, the amyloid nucleation score was determined as 1.23 ± 0.59. SKMCY showed an amyloid nucleation score of -0.692 ± 0.43.

In turn, SNSMLISYSCEFTWGVGKVL gave an amyloid nucleation score of 0.242 ± 0.4.

The substance GVVLGYRCLNMGLKALWSYV gave an amyloid nucleation score of -0.248 ± 0.48. For GETRVLHDKVGRKFGLCKDF the value was 0.32 ± 0.41.

Substance HCRNS returned an amyloid nucleation score of 2 ± 0.3.

For TNVMLPNGVGFLAPAVHCES, the amyloid nucleation score stood at 1.04 ± 0.51.

LCITQKYRFSLHNLHQPTDW had an amyloid nucleation score of 1.93 ± 0.45. ADDVCSCQGFLYRDVFCATD came in with an amyloid nucleation score of 0.531 ± 0.93. In the case of TKIRCDRWTLYIKGITYRAL, the amyloid nucleation score came out at 0.86 ± 1.1.

Values taken from the supplement of paper PMC12042874.
